Measurements published in patent US20130129739A1 (Bayer, published 2013).
Residue numbers refer to the chain shown, from its start.

T1: extracellular domain of human PRLR (monomeric, soluble) (human, UniProt P16471 25-234)
T1 construct: also called ECD-PRLR; ECD of PRLR
T1 sequence: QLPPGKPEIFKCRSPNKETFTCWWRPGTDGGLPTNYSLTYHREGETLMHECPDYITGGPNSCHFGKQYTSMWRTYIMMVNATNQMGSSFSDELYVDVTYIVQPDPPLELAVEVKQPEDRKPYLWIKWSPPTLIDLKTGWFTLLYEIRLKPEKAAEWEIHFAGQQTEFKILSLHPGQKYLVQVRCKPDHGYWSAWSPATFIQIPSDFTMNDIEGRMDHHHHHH

B1: 005-C04-29-17-7 (Fab, V domains shown)
VH: EVQLLESGGGLVQPGGSLRLSCAASGFTFSSYWMHWVRQAPGKGLEWVSDISSASSYTNYADSVKGRFTISRDNSKNTLYLQMNSLRAEDTAVYYCARGLDARRMDYWGQGTLVTVTS
VL: QSVLTQPPSASGTPGQRVTISCTGSSSNIGAGYVVHWYQQLPGTAPKLLIYRNNQRPSGVPDRFSGSKSGTSASLAISGLRSEDEADYYCAAWDDSLLGWLFGGGTKLTVLG
notes: Maturated 005-C04 variant; Fab in E. coli supernatant, flag-detected
B2: 005-C04-48-1 (Fab, V domains shown)
VH: B1 VH with M34N, S53R
VL: B1 VL with A31Y, L98N
notes: as for B1
B3: 005-C04-37-7 (Fab, V domains shown)
VH: B1 VH with M34W, A54L, N59G
VL: B1 VL with A31Y, Q55W, L98N
notes: as for B1
B4: 005-C04-L2-1-28-7 (Fab, V domains shown)
VH: B1 VH with M34N, I51M, A54L, N59G
VL: B1 VL with Q55V, P57Q, L98N
notes: as for B1
B5: 005-C04-L2-1-20-1 (Fab, V domains shown)
VH: B1 VH with M34W, S52A, S53R
VL: B1 VL with A31Y, Q55W, L98N
notes: as for B1
B6: 005-C04-52-29-7 (Fab, V domains shown)
VH: B1 VH with S53R
VL: B1 VL with L98N
notes: as for B1
B7: 005-C04-L2-1-23-7 (Fab, V domains shown)
VH: B1 VH with M34N, S53R, S56P, N59G
VL: B1 VL with Q55W, L98N
notes: as for B1
B8: 005-C04-52-29-0 (Fab, V domains shown)
VH: B1 VH with S53W
VL: B1 VL with L98N
notes: as for B1
B9: 005-C04-55-32-0 (Fab, V domains shown)
VH: B1 VH with S56P
VL: B1 VL with L98N
notes: as for B1
B10: 005-C04-40-4 (Fab, V domains shown)
VH: B1 VH with M34N, I51M, S52A, S53R, A54L
VL: B1 VL with A31Y, Q55V, P57Q, L98N
notes: as for B1
B11: 005-C04-L2-1-3-2 (Fab, V domains shown)
VH: B1 VH with M34N, I51M, S52A, S53R, A54L
VL: B1 VL with Q55V, P57Q, L98N
notes: as for B1
B12: 005-C04-L2-1-38-3 (Fab, V domains shown)
VH: B1 VH with M34N, S53R, A54L
VL: B1 VL with A31Y, Q55W, L98N
notes: as for B1
B13: 005-C04-L2-1-11-0 (Fab, V domains shown)
VH: B1 VH with M34W, I51M, S52A, S53R, A54L
VL: B1 VL with Q55V, P57Q, L98N
notes: as for B1
B14: 005-C04-L2-1-21-7 (Fab, V domains shown)
VH: B1 VH with M34W, I51M, S53R, A54L
VL: B1 VL with P57Q, L98N
notes: as for B1
B15: 005-C04-37-2 (Fab, V domains shown)
VH: B1 VH with M34W, A54L, N59G
VL: B1 VL with A31Y, Q55W, L98N
notes: as for B1
B16: 005-C04-L2-1-25-5 (Fab, V domains shown)
VH: B1 VH with M34N, I51M, S52A, A54L, S56P, N59G
VL: B1 VL with P57Q, L98N
notes: as for B1
B17: 005-C04-L2-1-40-2 (Fab, V domains shown)
VH: B1 VH with M34N, S53R, S56P, N59G
VL: B1 VL with P57Q, L98N
notes: as for B1
B18: 005-C04-L2-1-25-0 (Fab, V domains shown)
VH: B1 VH with M34W, S52A, S53R
VL: B1 VL with Q55W, L98N
notes: as for B1
B19: 005-C04-51-29-0 (Fab, V domains shown)
VH: B1 VH with S52A
VL: B1 VL with L98N
notes: as for B1
B20: 005-C04-36-0 (Fab, V domains shown)
VH: B1 VH with M34W, S52A, S53R, S56P
VL: B1 VL with A31Y, Q55V, L98N
notes: as for B1
B21: 005-C04-L2-1-12-4 (Fab, V domains shown)
VH: B1 VH with M34N, S52A, S53R, A54L
VL: B1 VL with Q55W, L98N
notes: as for B1
B22: 005-C04-L2-1-31-7 (Fab, V domains shown)
VH: B1 VH with M34W, S52A, S53R, A54L, S56P
VL: B1 VL with Q55W, P57Q, L98N
notes: as for B1
B23: 005-C04-L2-1-2-3 (Fab, V domains shown)
VH: B1 VH with M34N, I51M, S52A, S53R, S56P, N59G
VL: B1 VL with Q55W, L98N
notes: as for B1
B24: 005-C04-53-31-7 (Fab, V domains shown)
VH: B1 VH with A54L
VL: B1 VL with L98N
notes: as for B1
B25: 005-C04-L2-1-16-4 (Fab, V domains shown)
VH: B1 VH with M34N, I51M, S53R, A54L
VL: B1 VL with Q55W, L98N
notes: as for B1
B26: 005-C04-L2-1-40-7 (Fab, V domains shown)
VH: B1 VH with M34N, S52A, N59G
VL: B1 VL with Q55W, P57Q, L98N
notes: as for B1
B27: 005-C04-45-1 (Fab, V domains shown)
VH: B1 VH with M34N, S53R
VL: B1 VL with A31Y, Q55V, L98N
notes: as for B1
B28: 005-C04-58-33-1 (Fab, V domains shown)
VH: B1 VH with N59G
VL: B1 VL with L98N
notes: as for B1
B29: 005-C04-L2-1-4-5 (Fab, V domains shown)
VH: B1 VH with M34W, S53R
VL: B1 VL with A31Y, Q55W, L98N
notes: as for B1
B30: 005-C04-L2-1-33-7 (Fab, V domains shown)
VH: B1 VH with M34N, S52A, S53R, A54L, S56P, N59G
VL: B1 VL with Q55V, P57Q, L98N
notes: as for B1
B31: 005-C04-L2-1-20-0 (Fab, V domains shown)
VH: B1 VH with M34W, I51M, S53R, A54L
VL: B1 VL with Q55V, P57Q, L98N
notes: as for B1
B32: 005-C04-L2-1-25-7 (Fab, V domains shown)
VH: B1 VH with M34W, S52A, S53R
VL: B1 VL with A31Y, Q55W, L98N
notes: as for B1
B33: 005-C04-L2-1-11-3 (Fab, V domains shown)
VH: B1 VH with M34N, I51M, A54L
VL: B1 VL with Q55V, L98N
notes: as for B1
B34: 005-C04-L2-1-48-3 (Fab, V domains shown)
VH: B1 VH with M34N, S53R, S56P
VL: B1 VL with P57Q, L98N
notes: as for B1
B35: 005-C04-44-25-1 (Fab, V domains shown)
VH: B1 VH with M34N
VL: B1 VL with L98N
notes: as for B1
B36: 005-C04-L2-1-25-4 (Fab, V domains shown)
VH: B1 VH with M34N, S53R, A54L, S56P
VL: B1 VL with P57Q, L98N
notes: as for B1
B37: 005-C04-L2-1-47-0 (Fab, V domains shown)
VH: B1 VH with M34N, S53R, A54L, S56P
VL: B1 VL with Q55W, L98N
notes: as for B1
B38: 005-C04-L2-1-42-0 (Fab, V domains shown)
VH: B1 VH with M34N, S52A, S53R, N59G
VL: B1 VL with Q55W, P57Q, L98N
notes: as for B1
B39: 005-C04-L2-1-36-6 (Fab, V domains shown)
VH: B1 VH with M34N, I51M, S52A, A54L
VL: B1 VL with Q55W, P57Q, L98N
notes: as for B1
B40: 005-C04-42-1 (Fab, V domains shown)
VH: B1 VH with M34N, S53R, A54L
VL: B1 VL with A31Y, P57Q, L98N
notes: as for B1
B41: 005-C04-50-28-3 (Fab, V domains shown)
VH: B1 VH with I51R
VL: B1 VL with L98N
notes: as for B1
B42: 005-C04-47-3 (Fab, V domains shown)
VH: B1 VH with M34W, S53R, S56P
VL: B1 VL with A31Y, L98N
notes: as for B1
B43: 005-C04-46-1 (Fab, V domains shown)
VH: B1 VH with M34N, I51M, S53R, A54L, S56P
VL: B1 VL with A31Y, Q55V, P57Q, L98N
notes: as for B1

Target: T1, extracellular domain of human PRLR …
Assay: ELISA: plate coated with human PRLR extracellular domain, Fab-containing E. coli supernatant, anti-flag-HRP, Amplex Red
Experimental: 96 well microtiter plates were coated with 1 μg per milliliter of human PRLR. Plates were incubated over night at 4° C. After blocking with PBS buffer containing 3% bovine serum albumin, normalized E. coli-derived supernatants containing the Fab variants were added. Detection of formed complexes occurred via the addition of an anti-flag antibody (Sigma, A8592) labeled with horseradish peroxidase.

Row | binding result | Binder
1 | binds | B1
2 | binds | B2
3 | binds | B3
4 | binds | B4
5 | binds | B5
6 | binds | B6
7 | binds | B7
8 | binds | B8
9 | binds | B9
10 | binds | B10
11 | binds | B11
12 | binds | B12
13 | binds | B13
14 | binds | B14
15 | binds | B15
16 | binds | B16
17 | binds | B17
18 | binds | B18
19 | binds | B19
20 | binds | B20
21 | binds | B21
22 | binds | B22

Row | binding result | Binder
23 | binds | B23
24 | binds | B24
25 | binds | B25
26 | binds | B26
27 | binds | B27
28 | binds | B28
29 | binds | B29
30 | binds | B30
31 | binds | B31
32 | binds | B32
33 | binds | B33
34 | binds | B34
35 | binds | B35
36 | binds | B36
37 | binds | B37
38 | binds | B38
39 | binds | B39
40 | binds | B40
41 | binds | B41
42 | binds | B42
43 | binds | B43
